Here are results for two molecules from US20060216692, “Switchable nucleic acids for diagnostics, screening and molecular electronics” (published 2006).

In data set [1] the target is NCp7 (nucleocapsid protein, Zn2.NCp7(1-55)) (HIV-1) (UniProt P35962). Particulars: Trp assay; virtually identical Kd to 20mer.
In data set [2] the target is T1, NCp7 (nucleocapsid protein, Zn2.NCp7(1-55)) (HIV-1, UniProt P35962 SEQ:1-55).
T1 chain: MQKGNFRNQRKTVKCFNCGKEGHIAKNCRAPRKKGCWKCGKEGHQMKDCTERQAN
Description: Trp37 quenching, 0.2 M NaCl; equivalent of three NCp7 bound with high affinity per RNA. The conditions noted are these: about 3 per 154mer); SL1-SL4 stem-loops.

Turning to SL3 16mer, in data set [1], the binding signal (fold of SL3 20mer) amounted to 1.

B1: 154mer packaging domain (ssRNA)
RNA: GGAGCUCUCUCGACGCAGGACUCGGCUUGCUGAAGCGCGCACGGCAAGAGGCGAGGGGCGGCGACUGGUGAGUACGCCAAAAAUUUUGACUAGCGGAGGCUAGAAGGAGAGAGAUGGGUGCGAGAGCGUCAGUAUUAAGCGGGGGAGAAUUAGA
For B1, the binding result in data set [2] is reported as “binds”.
